Measured values from patent publication US20170152308A1 (Biogen, published 2017).
Where two headings read alike, the source gives them in different places.

T1: His-huTDP-43 domain I (amino acid residues 2-106) (human)
T1 construct: Amino terminal His-tagged fragment, E. coli; also called N-terminal domain
T1 chain: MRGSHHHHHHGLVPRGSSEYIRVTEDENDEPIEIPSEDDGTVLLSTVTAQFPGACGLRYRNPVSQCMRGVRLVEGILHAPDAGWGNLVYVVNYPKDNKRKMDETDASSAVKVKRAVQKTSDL

T2: His-huTDP-43 domain II (amino acid residues 99-204) (human)
T2 construct: Amino terminal His-tagged fragment, E. coli
T2 chain: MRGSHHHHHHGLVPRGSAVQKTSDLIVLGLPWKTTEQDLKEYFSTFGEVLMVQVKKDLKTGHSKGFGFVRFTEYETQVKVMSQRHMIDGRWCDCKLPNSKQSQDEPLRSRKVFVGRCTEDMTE

T3: His-huTDP-43 domain III (amino acid residues 183-273) (human)
T3 construct: Amino terminal His-tagged fragment, E. coli
T3 chain: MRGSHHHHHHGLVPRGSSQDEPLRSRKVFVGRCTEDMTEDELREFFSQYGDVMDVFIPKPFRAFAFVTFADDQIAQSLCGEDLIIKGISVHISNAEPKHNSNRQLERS


Experiments:
[1] = target: T4, recombinant full-length His-tagged human TDP-43 (2-414) (human, UniProt Q13148 2-414); assay: direct ELISA, coated antigen
T4 construct: Amino terminal His tag, made in E. coli, purified in 8 M urea; also called full length TDP-43; full-length TDP-43
Description: (§1) The half maximal effective concentration (EC₅₀) of the human-derived TDP-43-specific antibodies for human TDP-43 and their target target-specificity was determined substantially as described in Example 2 above. Briefly, 96 well microplates (Corning) were coated with recombinant full length TDP-43 (Biogen Idec, USA), Escherichia coli extract and BSA (Sigma, Buchs, Switzerland), diluted to a concentration of 5 μg/ml in carbonate ELISA coating buffer (pH 9.6) overnight at 4° C. […] Non-specific binding sites were blocked for 1 hr. at room temperature with PBS containing 2% BSA (Sigma, Buchs, Switzerland). Human TDP-43-specific antibodies were diluted to the indicated concentrations and incubated 1 hr. at room temperature. Binding was determined using a donkey anti-human IgGγ-specific secondary antibody conjugated with HRP (Jackson ImmunoResearch, USA), followed by measurement of HRP activity in a standard colorimetric assay. EC₅₀ values were estimated by a non-linear regression using GraphPad Prism software (San Diego, USA).

[2] = target: T5, 6xHis-SUMO-TDP-43 (1-414), properly folded full length (human, UniProt Q13148 1-414); assay: capture ELISA, antigen held by anti-6xHis antibody
T5 construct: Purified with KSCN and arginine, monomeric; captured on the plate by an anti-6xHis antibody; also called folded full-length TDP-43; 6xHis/SUMO tagged full length TDP-43; not shown: N-terminal 6xHis and SUMO tags from a modified pET19-b vector
T5 sequence (Q13148 whole entry): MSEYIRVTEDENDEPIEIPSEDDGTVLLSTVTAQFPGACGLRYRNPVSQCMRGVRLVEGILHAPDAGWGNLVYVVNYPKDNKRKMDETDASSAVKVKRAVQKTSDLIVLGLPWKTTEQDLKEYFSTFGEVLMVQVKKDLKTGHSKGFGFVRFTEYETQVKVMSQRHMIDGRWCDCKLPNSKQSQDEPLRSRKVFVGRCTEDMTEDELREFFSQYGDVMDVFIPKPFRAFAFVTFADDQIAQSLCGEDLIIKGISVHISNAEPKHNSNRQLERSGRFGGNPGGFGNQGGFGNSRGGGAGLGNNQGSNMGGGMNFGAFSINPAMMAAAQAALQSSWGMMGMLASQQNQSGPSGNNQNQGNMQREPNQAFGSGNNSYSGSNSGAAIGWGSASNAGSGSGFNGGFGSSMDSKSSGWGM
Description: (§2) Non-specific binding sites were blocked for 1 hr at RT with PBS containing 1% BSA (Sigma) and 0.05% Tween-20 (Fisher Scientific). 6×His-SUMO-TDP43 proteins at a concentration of 1.7 μM were allowed to bind to antibody-coated plates for 1 hr at RT in PBS buffer containing 1% BSA, 300 mM arginine and 0.1% PEG 5000, pH 7.5. Plates were incubated for 1 hr at RT with human antibodies of present invention, titrated in a three-fold dilution series, followed by HRP conjugated anti-human IgG Fc γ (Jackson ImmunoResearch) in PBST containing 1% BSA. HRP activity was measured in a standard colorimetric assay. EC₅₀ values were calculated using a four-parameter logistic curve fit on Softmax pro software (Molecular Devices).
(§3) We measured the binding affinity of the human-derived TDP-43 specific antibodies provided herein to properly folded 6×His/SUMO tagged TDP-43 using a capture ELISA in which native TDP-43 was immobilized without direct adsorption on the surface of the ELISA plate. This was achieved by immobilizing an anti 6×His antibody which then captured native TDP-43. […] After this immobilization step, binding by human antibodies was tested in regular buffers without interference of TDP-43 aggregation.

[3] = target: T6, 6xHis-SUMO-TDP-43 (220-414) (human, UniProt Q13148 220-414); assay: capture ELISA, antigen held by anti-6xHis antibody
T6 construct: Captured on the plate by an anti-6xHis antibody; also called 6xHis/SUMO tagged truncated TDP-43; not shown: N-terminal 6xHis and SUMO tags from a modified pET19-b vector
T6 sequence (Q13148 220-414): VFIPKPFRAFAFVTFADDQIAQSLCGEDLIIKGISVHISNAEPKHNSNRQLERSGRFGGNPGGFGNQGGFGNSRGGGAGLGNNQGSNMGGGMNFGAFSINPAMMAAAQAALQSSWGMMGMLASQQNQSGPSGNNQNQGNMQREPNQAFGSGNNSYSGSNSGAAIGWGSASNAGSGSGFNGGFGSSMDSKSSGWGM
Description: as §2, §3

[4] = target: T4, recombinant full-length His-tagged …; assay: direct ELISA, coated antigen; remark: listed apart in the source
Description: as §1

[5] = target: T1, His-huTDP-43 domain I (amino acid …); assay: Western blot, 300 ng recombinant protein per lane, primary antibody 10 nM
Description: (§4) Non-specific binding sites were blocked for 1 hr. at room temperature with PBST containing 2% BSA (Sigma, Buchs, Switzerland). Blots were incubated overnight with primary antibodies (10 nM) followed by either a donkey anti-human IgGγ-specific secondary antibody conjugated with HRP (Jackson ImmunoResearch, USA) or a goat-anti mouse IgG (H+L)-specific secondary antibody conjugated with HRP (Jackson ImmunoResearch, USA). Blots were developed using ECL and ImageQuant 350 detection (GE Healthcare, Otelfingen, Switzerland).

[6] = target: T2, His-huTDP-43 domain II (amino acid …); assay: as above
Description: as §4

[7] = target: T3, His-huTDP-43 domain III (amino acid …); assay: as above
Description: as §4

[8] = target: T1, His-huTDP-43 domain I (amino acid …); assay: direct ELISA, His-tagged TDP-43 fragments coated at 6.6 ug/ml, OD 450
Description: (§5) Non-specific binding sites were blocked for 1 hr. at room temperature with PBST containing 2% BSA (Sigma, Buchs, Switzerland). Antibodies were incubated 1 hr. at room temperature. Binding was determined using either a donkey anti-human IgGγ-specific antibody conjugated with HRP (Jackson ImmunoResearch, USA) or a goat-anti mouse IgG (H+L)-specific secondary antibody conjugated with HRP (Jackson ImmunoResearch, USA)., followed by measurement of HRP activity in a standard colorimetric assay.

[9] = target: T2, His-huTDP-43 domain II (amino acid …); assay: as above
Description: as §5

[10] = target: T3, His-huTDP-43 domain III (amino acid …); assay: as above
Description: as §5

EC50 [1]	EC50 [2]	EC50 [3]	EC50 [4]	binding result [5]	binding result [6]	binding result [7]	binding result [8]	binding result [9]	binding result [10]	binding result [1]	Binder
> 72 nM	> 72 nM	> 60 nM									NI-205.36D5 (antibody, human IgG1, V domains shown, Human-derived) VH: QVQLVESGGGVVQPGRSLRLSCAASRFTFSSYGMHWVRQAPGKGLEWVALIYYDATQKYYADSVKGRFTISRDNSKNALYLQMTSLRADDTAVYYCARDLPYHYHRSASFAPADTWGQGTLVTVSS VL: EIVLTQSPGTLSLSPGERATLSCRASQTISNNYLAWYQQKPGQAPRLLVYAASSRATGIPDRFYGSGSGADFTLTISRLEPEDFVVYYCQQYGSSPITFGQGTRLEIK
7.2 nM	16.3 nM	9.7 nM	7.2 nM	no binding (tested: 10 nM)	no binding (tested: 10 nM)	no binding (tested: 10 nM)					NI-205.15F12 (antibody, human IgG1, V domains shown, Human-derived) VH: QVQLVQSGTAVKKPGASVKVSCKASGFSFNGYYMHWVRQAPGQGLEWMGVINPNGGSTNYAQKFKGRITMSADTPARSVSMELGSLRSDDTAMYYCARLPVNIEVLDLWGQGTLVTVSS VL: DIVMTQSPDSLAVSLGERATINCRSSQTVLFSSNDKNYLAWYQQKPGQPPKLLIYWASVRASGVPDRFSGSGSGTDFSLTINGLQAEDVAVYYCQQSSTAPLTFGGGTKVEIK
13.3 nM	> 120 nM	> 100 nM	13.3 nM				no binding	no binding	no binding		NI-205.25F3 (antibody, human IgG1, V domains shown, Human-derived) VH: QVQLVESGGGVVQPGRSLRLSCAASGFTFSNYVMYWVRQAPGKGLEWVAFISYDGSNKYYPDSVKGRFTISRDNSMNTLYLQMDSLRAEDTAVYYCARDTYQYDSSTYYPYFYYYGMDVWGQGTTVTVSS VL: QSALTQPASVSGSPGQSITISCIGTSSDVGGYNYVSWYQQHPGKAPKLMIYEVSNRPSGVSSRFSGSKSGNTASLTISGLQSEDEADYYCSSFASSSTSVTFGGGTKLTVL
> 100 nM	> 100 nM										NI-205.14H5 (antibody, human IgG1, V domains shown, Human-derived) VH: EVQLLESGGGLVQPGGSLRLSCAASGFTFRNYAMAWVRQAPGKGLEWVSAIPARGDKTYYADSVRGRFTISRDISKSALYLQMNSLRVEDTAVYYCAKAHHLYNKNFDYWGQGTLVTVSS VL: EIVLTQSPGTLSLSPGETVTLSCRASQSVSSSNLAWYQQKPGQAPRLLIYGASSRATGIPDRFSGRGSGTDFTLTISRLEPEDFAVYYCQHYGTFGQGTKVDIK
	> 94 nM									no binding	NI-205.8F8 (antibody, human IgG1, V domains shown, Human-derived) VH: EVQLLESGGGLVQPGGSLRLSCAASGYTFSYYAMSWVRQAPGKGLEWVSTIGDSGSTTHYADSVKGRFTISRDNSKSTLYLQMNSLRAEDTAVYYCAKGLGPVAAIGDYWGQGTLVTVSS VL: QSVLTQPPSASGTPGQRVTISCSGSSSNIGSNNVYWYQQLPGTAPKLLVYRNNQRPSGVPDRVSGSKSGSSASLAISGLRSEDEADYYCAAWDDSLRGYVFGTGTKVTVL
15.3 nM	30.9 nM	6.45 nM		no binding (tested: 10 nM)	no binding (tested: 10 nM)	no binding (tested: 10 nM)					NI-205.10H7 (antibody, human IgG1, V domains shown, Human-derived) VH: QVQLVESGGGVVQPGRSLRLSCAASGFTFSNYAMHWVRQAPGKGLEWVAVIWYDGSKKYYGDSVKGRFTISRDNPKNTLYLQMNSLRVEDTAIYYCVPDAFDMWGQGTMVTVSS VL: DIVMTQTPLSSPVTLGQPASISCRSSQSLVHTDGKTYLSWLHQRPGQPPRPLIYKMSKRFSGVPDRFSGSGAETEFTLKISRVEAEDVGIYYCLQLTQFPITFGQGTRLEIK
7.2 nM	34 nM	4.6 nM	7.2 nM			no binding (tested: 10 nM)	no binding				NI-205.8A2 (antibody, human IgG1, V domains shown, Human-derived) VH: QVQLVESGGGVVQPGKSLRLSCAASGFTFRDHGMHWVRQAPGKGLEWVAVIWLDGSSRFYADSVEGRFTISRDNSKNTLYLQLTSLRAEDTAIYYCARDRVASEGTAFDVWGQGTMVTVSS VL: EIVLTQSPATLSLSPGERATLSCWASQNVNHYLVWYQQRPGQAPRLLLYDTSVRAAGIPARFIGSGSGTHFTLTISSLEPEDSAVYYCQHRSDWTFGQGTKVEIK
> 41 nM	41 nM	19.4 nM									NI-205.31D2 (antibody, human IgG1, V domains shown, Human-derived) VH: EVQLLESGGGSVQPGGSLRLSCAASGFTFSTYVMSWVRQAPGKGLEWVSAISRRGGSTYYADSVKGRFTISRDNSKNTLYLQMNSLRAEDTAVYYCAKDRWLTGRTGGVFDIWGQGTMVTVSS VL: not shown
7.3 nM	> 90 nM	20.5 nM		no binding (tested: 10 nM)	no binding (tested: 10 nM)	no binding (tested: 10 nM)					NI-205.10D3 (antibody, human IgG1, V domains shown, Human-derived) VH: QVQLQESGPGLVKPSETLSLTCTVSGGSITDYYWSWIRQPPGKGLEWIGYIHDSGTTRYNPSLTSRLSMSLDTSTNQVSLRLTSVTAADTAVYYCAKVPDYWGQGTLVTVSS VL: not shown
